Experimental data published in patent US20100055110A1 (XOMA TECHNOLOGY, published 2010).

Target: recombinant human IL-1β (human, UniProt P01584 117-269)
Assay: cell-based or functional assay

B1: AB1 (antibody, V domains shown)
VH: QVTLKESGPGILKPSQTLSLTCSFSGFSLSTSGMGVGWIRQPSGKGLEWLAHIWWDGDESYNPSLKTQLTISKDTSRNQVFLKITSVDTVDTATYFCARARYDPPWFVDWGQGTLVTVSS
VL: DIQMTQTTSSLSASLGDRVTISCRASQDISNYLSWYQQKPDGTVKLLIYYTSKLHSGVPSRFSGSGSGTDYSLTISNLEQEDIATYFCLQGKMLPWTFGGGTKLEIK
  IC50 (read off the curve); % inhibition of IL-6 release from human fibroblasts stimulated with IL-1 beta at 100 pg/ml: ~200 pM
